Assay results taken from patent US20150125424A1 (MICREOS B V, published 2015).

How the values were obtained:
[1] = target: outer membrane protein C (OmpC) of S. Typhimurium DT7155 (S. Typhimurium DT7155); assay: control of competition in pull down assay; S. Tm. DT7155 wt cells pre-incubated with HGFP, then phage S16 added; value is remaining S16 adsorption
[2] = target: T1, Phage S16 (whole phage particle) (Phage S16, UniProt M1EAS5 1-638; M1EBB2 1-249); assay: pull down assay (phage adsorption) on E. coli K-12 wt and E. coli K-12 ΔompC::ompC(K-12) cells
T1 construct: The whole virion stood in the assay; All other virion proteins are left out; also called bacteriophage S16; CBS130493
T1 sequence 1: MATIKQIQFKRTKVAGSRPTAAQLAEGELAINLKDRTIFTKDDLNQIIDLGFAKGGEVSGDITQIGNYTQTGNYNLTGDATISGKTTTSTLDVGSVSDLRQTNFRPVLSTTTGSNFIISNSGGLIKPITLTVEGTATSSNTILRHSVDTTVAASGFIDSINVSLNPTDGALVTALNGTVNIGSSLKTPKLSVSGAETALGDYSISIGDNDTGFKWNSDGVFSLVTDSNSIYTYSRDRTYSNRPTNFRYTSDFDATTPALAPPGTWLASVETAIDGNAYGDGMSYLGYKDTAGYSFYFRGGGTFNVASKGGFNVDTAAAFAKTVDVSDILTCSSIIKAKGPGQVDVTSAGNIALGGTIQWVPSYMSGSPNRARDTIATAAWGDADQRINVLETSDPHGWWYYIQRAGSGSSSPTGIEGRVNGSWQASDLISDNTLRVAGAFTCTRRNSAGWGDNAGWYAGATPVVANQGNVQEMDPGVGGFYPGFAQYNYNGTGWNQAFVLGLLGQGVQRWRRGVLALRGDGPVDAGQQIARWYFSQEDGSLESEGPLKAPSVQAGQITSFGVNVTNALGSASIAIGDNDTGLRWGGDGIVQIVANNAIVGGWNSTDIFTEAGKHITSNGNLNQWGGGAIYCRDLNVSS
T1 sequence 2: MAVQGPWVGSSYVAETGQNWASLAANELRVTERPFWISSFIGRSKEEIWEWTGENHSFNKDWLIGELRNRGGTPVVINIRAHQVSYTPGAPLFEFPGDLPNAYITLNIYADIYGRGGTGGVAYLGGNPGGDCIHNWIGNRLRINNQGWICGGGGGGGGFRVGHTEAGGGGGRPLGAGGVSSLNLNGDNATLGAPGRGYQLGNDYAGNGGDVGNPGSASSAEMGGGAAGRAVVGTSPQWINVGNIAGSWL

HGFP (6xHis-tagged GFP alone, control) was tested, and the adsorption ratio of S16 after pre-incubation [1] was 93.8%.

B1: OmpC of E. coli K-12 (receptor)
chain: AEVYNKDGNKLDLYGKVDGLHYFSDNKDVDGDQTYMRLGFKGETQVTDQLTGYGQWEYQIQGNSAENENNSWTRVAFAGLKFQDVGSFDYGRNYGVVYDVTSWTDVLPEFGGDTYGSDNFMQQRGNGFATYRNTDFFGLVDGLNFAVQYQGKNGNPSGEGFTSGVTNNGRDALRQNGDGVGGSITYDYEGFGIGGAISSSKRTDAQNTAAYIGNGDRAETYTGGLKYDANNIYLAAQYTQTYNATRVGSLGWANKAQNFEAVAQYQFDFGLRPSLAYLQSKGKNLGRGYDDEDILKYVDVGATYYFNKNMSTYVDYKINLLDDNQFTRDAGINTDNIVALGLVYQF
notes: whole, on cells; Presented on E. coli K-12 wt cells, or expressed in trans from pBAD18 Amp^r in E. coli K-12 ΔompC; also called ompC(K-12)
B1: no binding [2].
